Measured values taken from paper PMC3433420, “Comprehensive Binary Interaction Mapping of SH2 Domains via Fluorescence Polarization Reveals Novel Functional Diversification of ErbB Receptors” (PLoS ONE, 2012).
“And” between values parts separate entries of the source, which are not always exact repeats. Equal values may be shown once. Non-standard residues stand in square brackets, D forms with d. No end group written: not given here. pY = N[C@@H](Cc1ccc(OP(=O)(O)O)cc1)C(=O)O; Rhodamine = not defined here

Legend:
Experiment in all cases: peptide or protein array; SH2/PTB proteins spotted on aldehyde slides, rhodamine peptide titrated in buffer B (20 mM HEPES, 100 mM KCl, 0.1% Tween-20, 5 mM DTT, pH 7.8), 1 h at room temperature; replicate assays
Conditions in all cases: both partners purified
ABL1 SH2 domain = target: T1, ABL1 SH2 domain (human, UniProt P00519 127-217)
T1 construct: ABL1, human; source: bacterial expression, purified
T1 sequence (looked up): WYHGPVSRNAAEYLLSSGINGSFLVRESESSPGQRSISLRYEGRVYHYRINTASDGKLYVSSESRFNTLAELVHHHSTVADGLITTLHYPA

GRAP2 SH2 domain = target: T2, GRAP2 SH2 domain (human, UniProt O75791 58-149)
T2 construct: GRAP2, human; source: bacterial expression, purified
T2 sequence (looked up): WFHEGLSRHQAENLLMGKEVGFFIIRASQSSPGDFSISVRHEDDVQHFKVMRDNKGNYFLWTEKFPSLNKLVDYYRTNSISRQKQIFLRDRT

ABL2 SH2 domain = target: T3, ABL2 SH2 domain (human, UniProt P42684 173-263)
T3 construct: ABL2, human; source: bacterial expression, purified
T3 sequence (looked up): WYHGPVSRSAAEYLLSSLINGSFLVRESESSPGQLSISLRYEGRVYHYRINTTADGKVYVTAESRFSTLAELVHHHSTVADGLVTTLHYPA

[1] = target: T4, PIK3R3 C-terminal SH2 domain (human)
T4 construct: PIK3R3, human; source: bacterial expression, purified

[2] = target: T5, RASA1 C-terminal SH2 domain (human)
T5 construct: RASA1, human; source: bacterial expression, purified
T5 sequence (P20936 whole entry, looked up): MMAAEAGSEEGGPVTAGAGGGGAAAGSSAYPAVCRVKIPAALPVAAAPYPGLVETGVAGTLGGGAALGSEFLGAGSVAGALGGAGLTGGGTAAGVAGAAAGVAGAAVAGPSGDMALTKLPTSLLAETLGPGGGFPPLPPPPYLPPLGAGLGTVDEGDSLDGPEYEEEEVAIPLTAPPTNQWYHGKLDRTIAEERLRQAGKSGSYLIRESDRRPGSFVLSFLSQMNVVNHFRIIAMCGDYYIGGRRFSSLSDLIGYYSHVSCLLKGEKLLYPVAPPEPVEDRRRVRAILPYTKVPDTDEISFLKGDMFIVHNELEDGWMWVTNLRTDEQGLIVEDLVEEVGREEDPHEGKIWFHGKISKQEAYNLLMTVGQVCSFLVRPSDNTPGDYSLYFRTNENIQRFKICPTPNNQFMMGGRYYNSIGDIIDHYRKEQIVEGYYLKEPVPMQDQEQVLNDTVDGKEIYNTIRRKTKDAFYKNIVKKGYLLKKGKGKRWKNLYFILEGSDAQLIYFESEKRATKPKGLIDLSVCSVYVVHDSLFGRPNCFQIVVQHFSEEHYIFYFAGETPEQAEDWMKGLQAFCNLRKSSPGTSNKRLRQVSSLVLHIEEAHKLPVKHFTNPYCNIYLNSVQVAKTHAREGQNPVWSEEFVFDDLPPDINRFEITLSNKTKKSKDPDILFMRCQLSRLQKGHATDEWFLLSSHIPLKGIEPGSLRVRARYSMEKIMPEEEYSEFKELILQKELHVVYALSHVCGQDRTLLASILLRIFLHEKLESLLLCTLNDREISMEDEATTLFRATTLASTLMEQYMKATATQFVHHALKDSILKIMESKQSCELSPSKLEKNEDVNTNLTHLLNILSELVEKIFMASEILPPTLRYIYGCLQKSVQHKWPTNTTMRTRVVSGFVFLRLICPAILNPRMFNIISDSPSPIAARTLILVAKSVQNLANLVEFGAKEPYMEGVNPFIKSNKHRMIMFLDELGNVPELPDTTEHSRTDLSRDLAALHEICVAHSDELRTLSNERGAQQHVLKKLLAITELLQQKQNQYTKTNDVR

BLNK SH2 domain = target: T6, BLNK SH2 domain (human, UniProt Q8WV28 346-453)
T6 construct: BLNK, human; source: bacterial expression, purified
T6 sequence (looked up): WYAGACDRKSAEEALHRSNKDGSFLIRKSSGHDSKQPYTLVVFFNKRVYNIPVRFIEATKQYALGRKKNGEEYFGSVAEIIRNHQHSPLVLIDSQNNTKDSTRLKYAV

SH3BP2 SH2 domain = target: T7, SH3BP2 SH2 domain (human, UniProt P78314 457-555)
T7 construct: SH3BP2, human; source: bacterial expression, purified
T7 sequence (looked up): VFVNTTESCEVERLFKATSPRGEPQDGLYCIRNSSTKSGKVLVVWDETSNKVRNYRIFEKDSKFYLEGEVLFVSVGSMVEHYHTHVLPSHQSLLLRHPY

SHC1 domain construct = target: T8, SHC1 domain construct (human)
T8 chain: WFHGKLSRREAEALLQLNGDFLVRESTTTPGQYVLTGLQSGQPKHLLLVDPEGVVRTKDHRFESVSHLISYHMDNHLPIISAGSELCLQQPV

## Rhodamine-ETDG[pY]VAPLTCSD (reading uncertain) [ErbB2 pY1127 phosphopeptide, rhodamine-labelled, for protein microarrays]
ABL1 SH2 domain
  Kd: 529 nM and 301 nM
GRAP2 SH2 domain
  Kd: 19400 nM
ABL2 SH2 domain
  Kd: 17 nM and 14.6 nM
[1]
  Kd: 2040 nM and 1210 nM
[2]
  Kd: 1210 nM
BLNK SH2 domain
  Kd: 1950 nM and 1250 nM
SH3BP2 SH2 domain
  Kd: 1140 nM and 2860 nM
SHC1 domain construct
  Kd: 820 nM and 978 nM
